Assay results reported in patent US7351690B2, “Knockout identification of target-specific sites in peptides” (priority 2000, dated 2008).
Square brackets hold non-standard residues; d marks the D form. Ends that are not written are not given here. Nle = CCCC[C@H](N)C(=O)O

What was measured:
[1] = molecular target: T1, hMC4-R (Homo sapiens, UniProt P32245); assay: competitive inhibition binding assay, 125I-NDP-alpha-MSH, hMC4-R membranes; details: for % Inhibition at 1 μM at Melanocortin Receptor 4: 1 μM test peptide, 0.4 nM 125I-NDP-alpha-MSH, hMC4-R membranes
T1 construct: expressed in transfected cells
In short: (§1)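 Membranes from hMC3-R, hMC4-R, hMC5-R or B-16 cells (MC1-R) incubated 90 min at room temperature with 0.4 nM 125I-NDP-alpha-MSH and rhenium-complexed test peptide, typically 1 μM, in HEPES pH 7.2 with Mg/Ca/K. Filter-bound radioactivity counted; % inhibition of specific binding (1 μM alpha-MSH defines nonspecific), triplicate means.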

[2] = molecular target: T2, hMC3-R (Homo sapiens, UniProt P41968); assay: competitive inhibition binding assay, 125I-NDP-alpha-MSH, hMC3-R membranes; details: for % Inhibition at 1 μM at Melanocortin Receptor 3: 1 μM test peptide, 0.4 nM 125I-NDP-alpha-MSH, hMC3-R membranes
T2 construct: expressed in transfected cells
In short: as §1

[3] = molecular target: T3, hMC5-R (Homo sapiens, UniProt P33032); assay: competitive inhibition binding assay, 125I-NDP-alpha-MSH, hMC5-R membranes; details: for % Inhibition at 1 μM at Melanocortin Receptor 5: 1 μM test peptide, 0.4 nM 125I-NDP-alpha-MSH, hMC5-R membranes
T3 construct: expressed in transfected cells
In short: as §1

[4] = molecular target: T4, MC1-R (Mus musculus, UniProt Q01727); assay: competitive inhibition binding assay, 125I-NDP-alpha-MSH, B-16 mouse melanoma cell membranes; details: for % Inhibition at 1 μM at Melanocortin Receptor 1: 1 μM test peptide, 0.4 nM 125I-NDP-alpha-MSH, B-16 mouse melanoma cell membranes
T4 construct: membranes prepared from hMC3-R, hMC4-R, hMC5-R, and B-16 mouse melanoma cells (containing MC1-R); endogenous in cells; host or cells: B-16 mouse melanoma cells (membranes)
In short: as §1

T3 sequence (P33032 whole entry): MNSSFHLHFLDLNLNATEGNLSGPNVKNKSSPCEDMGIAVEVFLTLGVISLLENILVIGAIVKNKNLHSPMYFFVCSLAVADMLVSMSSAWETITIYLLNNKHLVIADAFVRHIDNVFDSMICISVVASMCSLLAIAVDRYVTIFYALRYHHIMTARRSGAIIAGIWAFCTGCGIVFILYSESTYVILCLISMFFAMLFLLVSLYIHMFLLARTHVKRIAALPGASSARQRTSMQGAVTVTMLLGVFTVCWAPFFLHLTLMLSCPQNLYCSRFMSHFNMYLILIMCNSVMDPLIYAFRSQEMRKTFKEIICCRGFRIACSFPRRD
T4 sequence (Q01727 whole entry): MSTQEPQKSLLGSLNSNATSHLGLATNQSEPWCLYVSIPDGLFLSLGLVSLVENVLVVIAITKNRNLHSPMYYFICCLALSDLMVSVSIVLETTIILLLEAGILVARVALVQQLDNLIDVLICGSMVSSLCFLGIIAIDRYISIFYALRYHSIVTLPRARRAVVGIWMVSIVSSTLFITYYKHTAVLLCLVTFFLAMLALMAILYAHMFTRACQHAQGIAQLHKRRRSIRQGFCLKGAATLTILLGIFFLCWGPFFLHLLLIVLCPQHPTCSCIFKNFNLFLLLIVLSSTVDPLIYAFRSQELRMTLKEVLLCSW
T1 sequence (P32245 whole entry): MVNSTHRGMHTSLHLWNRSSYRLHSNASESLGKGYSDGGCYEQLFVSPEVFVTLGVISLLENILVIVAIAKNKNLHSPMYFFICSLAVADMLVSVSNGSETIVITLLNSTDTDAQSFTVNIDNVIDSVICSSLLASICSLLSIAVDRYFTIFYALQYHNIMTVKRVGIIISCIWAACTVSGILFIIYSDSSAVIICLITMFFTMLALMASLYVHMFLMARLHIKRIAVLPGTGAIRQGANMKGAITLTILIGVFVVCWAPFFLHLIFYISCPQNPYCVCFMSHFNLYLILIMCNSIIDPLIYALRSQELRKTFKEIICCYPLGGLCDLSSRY
T2 sequence (P41968 whole entry): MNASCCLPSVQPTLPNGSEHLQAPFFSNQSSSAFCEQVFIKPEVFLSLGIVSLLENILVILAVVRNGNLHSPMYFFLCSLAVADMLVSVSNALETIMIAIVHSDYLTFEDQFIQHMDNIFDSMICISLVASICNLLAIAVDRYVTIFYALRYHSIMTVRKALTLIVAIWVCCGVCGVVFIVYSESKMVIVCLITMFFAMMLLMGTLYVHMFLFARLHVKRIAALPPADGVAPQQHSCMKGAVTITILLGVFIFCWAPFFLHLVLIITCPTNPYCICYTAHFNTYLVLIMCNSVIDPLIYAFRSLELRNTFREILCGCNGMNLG

## Tyr-Val-Nle-Gly-His-Phe-Arg-Trp-Asp-Arg-Phe-Cys-NH2 (GHFRWDRFC; N-terminal Tyr-Val-Nle; C-terminal amide; printed: Gly-His-Phe-Arg-Trp-Asp-Arg-Phe-Cys-) [4-1]
[1]
  % Inhibition at 1 μM at Melanocortin Receptor 4: 36%
[2]
  % Inhibition at 1 μM at Melanocortin Receptor 3: 69%
[3]
  % Inhibition at 1 μM at Melanocortin Receptor 5: 41%
[4]
  % Inhibition at 1 μM at Melanocortin Receptor 1: 56%

## Tyr-Val-Nle-Gly-His-Phe-Arg-Trp-Asp-Arg-Phe-NH2 (GHFRWDRF; N-terminal Tyr-Val-Nle, C-terminal amide; printed: Gly-His-Phe-Arg-Trp-Asp-Arg-Phe-) [Parent, reference compound]
[1]
  binding to MC4-R, in words: moderate affinity
[2]
  binding to MC3-R, in words: high affinity
[3]
  binding to MC5-R, in words: moderate affinity
[4]
  binding to MC1-R, in words: high affinity

## Tyr-Val-Nle-Gly-His-Phe-Arg-Trp-Asp-Cys-Arg-Phe-NH2 (YV[Nle]GHFRWDCRF-NH2; numbers in words are those of the source; also: oxorhenium(V) N3S1 chelate (Re=O) with Cys) [4-3]
[1]
  % Inhibition at 1 μM at Melanocortin Receptor 4: 23%
[2]
  % Inhibition at 1 μM at Melanocortin Receptor 3: 18%
[3]
  % Inhibition at 1 μM at Melanocortin Receptor 5: 65%
[4]
  % Inhibition at 1 μM at Melanocortin Receptor 1: 44%

## Tyr-Val-Nle-Gly-His-Phe-Arg-Trp-Cys-Asp-Arg-Phe-NH2 (YV[Nle]GHFRWCDRF-NH2; numbers in words are those of the source; also: oxorhenium(V) N3S1 chelate (Re=O) with Cys) [4-4]
[1]
  % Inhibition at 1 μM at Melanocortin Receptor 4: 39%
[2]
  % Inhibition at 1 μM at Melanocortin Receptor 3: 20%
[3]
  % Inhibition at 1 μM at Melanocortin Receptor 5: 47%
[4]
  % Inhibition at 1 μM at Melanocortin Receptor 1: 52%

## Tyr-Val-Nle-Gly-His-Phe-Cys-Arg-Trp-Asp-Arg-Phe-NH2 (YV[Nle]GHFCRWDRF-NH2; numbers in words are those of the source; also: oxorhenium(V) N3S1 chelate (Re=O) with Cys) [4-6]
[1]
  % Inhibition at 1 μM at Melanocortin Receptor 4: −2%
[2]
  % Inhibition at 1 μM at Melanocortin Receptor 3: 5%
[3]
  % Inhibition at 1 μM at Melanocortin Receptor 5: 24%
[4]
  % Inhibition at 1 μM at Melanocortin Receptor 1: −8%

## YVCGH[dF]RWDRF-NH2 [5-9]
[1]
  % Inhibition at 1 μM at Melanocortin Receptor 4: 66%
[2]
  % Inhibition at 1 μM at Melanocortin Receptor 3: 53%
[3]
  % Inhibition at 1 μM at Melanocortin Receptor 5: 53%
[4]
  % Inhibition at 1 μM at Melanocortin Receptor 1: 89%
